Test results reported in article PMC11574045, “A cofactor-induced repressive type of transcription factor condensation can be induced by synthetic peptides to suppress tumorigenesis” (The EMBO Journal, 2024).

B1: PIAS2 (protein, UniProt O75928 1-621, looked up)
E3 SUMO-protein ligase PIAS2: MADFEELRNMVSSFRVSELQVLLGFAGRNKSGRKHDLLMRALHLLKSGCSPAVQIKIRELYRRRYPRTLEGLSDLSTIKSSVFSLDGGSSPVEPDLAVAGIHSLPSTSVTPHSPSSPVGSVLLQDTKPTFEMQQPSPPIPPVHPDVQLKNLPFYDVLDVLIKPTSLVQSSIQRFQEKFFIFALTPQQVREICISRDFLPGGRRDYTVQVQLRLCLAETSCPQEDNYPNSLCIKVNGKLFPLPGYAPPPKNGIEQKRPGRPLNITSLVRLSSAVPNQISISWASEIGKNYSMSVYLVRQLTSAMLLQRLKMKGIRNPDHSRALIKEKLTADPDSEIATTSLRVSLMCPLGKMRLTIPCRAVTCTHLQCFDAALYLQMNEKKPTWICPVCDKKAAYESLILDGLFMEILNDCSDVDEIKFQEDGSWCPMRPKKEAMKVSSQPCTKIESSSVLSKPCSVTVASEASKKKVDVIDLTIESSSDEEEDPPAKRKCIFMSETQSSPTKGVLMYQPSSVRVPSVTSVDPAAIPPSLTDYSVPFHHTPISSMSSDLPGLDFLSLIPVDPQYCPPMFLDSLTSPLTASSTSVTTTSSHESSTHVSSSSSRSETGVITSSGSNIPDIISLD
B2: PIAS4 (protein, UniProt Q9JM05 2-507, looked up)
E3 SUMO-protein ligase PIAS4: AAELVEAKNMVMSFRVSDLQMLLGFVGRSKSGLKHELVTRALQLVQFDCSPELFKKIKELYETRYAKKSAEPGPQAPRPLDPLALHSMPRTPLSGPTVDYPVLYGKYLNGLGRLPTKTLKPEVRLVKLPFFNMLDELLKPTELVPQSAEKLQESPCIFALTPRQVEMIRNSRELQPGVKAVQVVLRICYSDTSCPQEDQYPPNIAVKVNHSYCSVPGYYPSNKPGVEPKRPCRPINLTHLMYLSSATNRITVTWGNYGKSYSVALYLVRQLTSSDLLQRLKTIGVKHPELCKALVKEKLRLDPDSEIATTGVRVSLICPLVKMRLSVPCRAETCAHLQCFDAVFYLQMNEKKPTWMCPVCDKPAAYDQLIIDGLLSKILSECEGADEIEFLAEGSWRPIRAEKEPSCSPQGPILVLGTSDANGLAPASSTPGIGSGLSGPGSAGSGAGAAGSLENGKTGADVVDLTLDSSSSSEDEDEDEDDDEDEDEGPRPKRRCPFQKGLVPAC
B3: BACH1 (protein, UniProt O14867 1-736, looked up)
Transcription regulator …: MSLSENSVFAYESSVHSTNVLLSLNDQRKKDVLCDVTIFVEGQRFRAHRSVLAACSSYFHSRIVGQADGELNITLPEEVTVKGFEPLIQFAYTAKLILSKENVDEVCKCVEFLSVHNIEESCFQFLKFKFLDSTADQQECPRKKCFSSHCQKTDLKLSLLDQRDLETDEVEEFLENKNVQTPQCKLRRYQGNAKASPPLQDSASQTYESMCLEKDAALALPSLCPKYRKFQKAFGTDRVRTGESSVKDIHASVQPNERSENECLGGVPECRDLQVMLKCDESKLAMEPEETKKDPASQCPTEKSEVTPFPHNSSIDPHGLYSLSLLHTYDQYGDLNFAGMQNTTVLTEKPLSGTDVQEKTFGESQDLPLKSDLGTREDSSVASSDRSSVEREVAEHLAKGFWSDICSTDTPCQMQLSPAVAKDGSEQISQKRSECPWLGIRISESPEPGQRTFTTLSSVNCPFISTLSTEGCSSNLEIGNDDYVSEPQQEPCPYACVISLGDDSETDTEGDSESCSAREQECEVKLPFNAQRIISLSRNDFQSLLKMHKLTPEQLDCIHDIRRRSKNRIAAQRCRKRKLDCIQNLESEIEKLQSEKESLLKERDHILSTLGETKQNLTGLCQKVCKEAALSQEQIQILAKYSAADCPLSFLISEKDKSTPDGELALPSIFSLSDRPPAVLPPCARGNSEPGYARGQESQQMSTATSEQAGPAEQCRQSGGISDFCQQMTDKCTTDE
B4: POLR3C (protein, UniProt Q9BUI4 1-534, looked up)
DNA-directed RNA polymerase …: MTQAEIKLCSLLLQEHFGEIVEKIGVHLIRTGSQPLRVIAHDTGTSLDQVKKALCVLVQHNLVSYQVHKRGVVEYEAQCSRVLRMLRYPRYIYTTKTLYSDTGELIVEELLLNGKLTMSAVVKKVADRLTETMEDGKTMDYAEVSNTFVRLADTHFVQRCPSVPTTENSDPGPPPPAPTLVINEKDMYLVPKLSLIGKGKRRRSSDEDAAGEPKAKRPKYTTDNKEPIPDDGIYWQANLDRFHQHFRDQAIVSAVANRMDQTSSEIVRTMLRMSEITTSSSAPFTQPLSSNEIFRSLPVGYNISKQVLDQYLTLLADDPLEFVGKSGDSGGGMYVINLHKALASLATATLESVVQERFGSRCARIFRLVLQKKHIEQKQVEDFAMIPAKEAKDMLYKMLSENFMSLQEIPKTPDHAPSRTFYLYTVNILSAARMLLHRCYKSIANLIERRQFETKENKRLLEKSQRVEAIIASMQATGAEEAQLQEIEEMITAPERQQLETLKRNVNKLDASEIQVDETIFLLESYIECTMKRQ
B5: POU2AF1 (protein, UniProt Q16633 1-256, looked up)
POU domain class …: MLWQKPTAPEQAPAPARPYQGVRVKEPVKELLRRKRGHASSGAAPAPTAVVLPHQPLATYTTVGPSCLDMEGSVSAVTEEAALCAGWLSQPTPATLQPLAPWTPYTEYVPHEAVSCPYSADMYVQPVCPSYTVVGPSSVLTYASPPLITNVTTRSSATPAVGPPLEGPEHQAPLTYFPWPQPLSTLPTSTLQYQPPAPALPGPQFVQLPISIPEPVLQDMEDPRRAASSLTIDKLLLEEEDSDAYALNHTLSVEGF
B6: POU2F2 (protein, UniProt P09086 1-479, looked up)
POU domain, class 2, …: MVHSSMGAPEIRMSKPLEAEKQGLDSPSEHTDTERNGPDTNHQNPQNKTSPFSVSPTGPSTKIKAEDPSGDSAPAAPLPPQPAQPHLPQAQLMLTGSQLAGDIQQLLQLQQLVLVPGHHLQPPAQFLLPQAQQSQPGLLPTPNLFQLPQQTQGALLTSQPRAGLPTQAVTRPTLPDPHLSHPQPPKCLEPPSHPEEPSDLEELEQFARTFKQRRIKLGFTQGDVGLAMGKLYGNDFSQTTISRFEALNLSFKNMCKLKPLLEKWLNDAETMSVDSSLPSPNQLSSPSLGFDGLPGRRRKKRTSIETNVRFALEKSFLANQKPTSEEILLIAEQLHMEKEVIRVWFCNRRQKEKRINPCSAAPMLPSPGKPASYSPHMVTPQGGAGTLPLSQASSSLSTTVTTLSSAVGTLHPSRTAGGGGGGGGAAPPLNSIPSVTPPPPATTNSTNPSPQGSHSAIGLSGLNPSTGPGLWWNPAPYQP
B7: POU3F1 (protein, UniProt Q03052 1-451, looked up)
POU domain, class 3, …: MATTAQYLPRGPGGGAGGTGPLMHPDAAAAAAAAAAAERLHAGAAYREVQKLMHHEWLGAGAGHPVGLAHPQWLPTGGGGGGDWAGGPHLEHGKAGGGGTGRADDGGGGGGFHARLVHQGAAHAGAAWAQGSTAHHLGPAMSPSPGASGGHQPQPLGLYAQAAYPGGGGGGLAGMLAAGGGGAGPGLHHALHEDGHEAQLEPSPPPHLGAHGHAHGHAHAGGLHAAAAHLHPGAGGGGSSVGEHSDEDAPSSDDLEQFAKQFKQRRIKLGFTQADVGLALGTLYGNVFSQTTICRFEALQLSFKNMCKLKPLLNKWLEETDSSSGSPTNLDKIAAQGRKRKKRTSIEVGVKGALESHFLKCPKPSAHEITGLADSLQLEKEVVRVWFCNRRQKEKRMTPAAGAGHPPMDDVYAPGELGPGGGGASPPSAPPPPPPAALHHHHHHTLPGSVQ
B8: POU3F2 (protein, UniProt P20265 1-443, looked up)
POU domain, class 3, …: MATAASNHYSLLTSSASIVHAEPPGGMQQGAGGYREAQSLVQGDYGALQSNGHPLSHAHQWITALSHGGGGGGGGGGGGGGGGGGGGGDGSPWSTSPLGQPDIKPSVVVQQGGRGDELHGPGALQQQHQQQQQQQQQQQQQQQQQQQQQRPPHLVHHAANHHPGPGAWRSAAAAAHLPPSMGASNGGLLYSQPSFTVNGMLGAGGQPAGLHHHGLRDAHDEPHHADHHPHPHSHPHQQPPPPPPPQGPPGHPGAHHDPHSDEDTPTSDDLEQFAKQFKQRRIKLGFTQADVGLALGTLYGNVFSQTTICRFEALQLSFKNMCKLKPLLNKWLEEADSSSGSPTSIDKIAAQGRKRKKRTSIEVSVKGALESHFLKCPKPSAQEITSLADSLQLEKEVVRVWFCNRRQKEKRMTPPGGTLPGAEDVYGGSRDTPPHHGVQTPVQ

System: HEK293FT cells transfected with TF library
Test: Screening of TF condensates based on fluorescent puncta
Format: cell-based
Conditions: Figure 1B numerical data; TF library screen, one value per transcriptional factor
In short: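 Each TF construct was introduced into HEK293FT cells using PEI at 4.8 μg/ml; glucose deprivation versus normal medium lasted 12 h. Automated confocal-style imaging of tagged TF staining, 50 fields per well, gave the puncta data.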

Molecule	Z score of condensed fraction
B1	-0.03329
B2	-0.6594
B3	-0.5247
B4	2.0488
B5	2.502
B6	-0.2237
B7	-0.6601
B8	-0.6292
